According to paper PMC6520018:
Changes are numbered by the printed parent chain. Where two headings read alike, the source gives them in different places.

T1: AtALBA2 (Arabidopsis thaliana, UniProt O22969 1-130)
T1 sequence: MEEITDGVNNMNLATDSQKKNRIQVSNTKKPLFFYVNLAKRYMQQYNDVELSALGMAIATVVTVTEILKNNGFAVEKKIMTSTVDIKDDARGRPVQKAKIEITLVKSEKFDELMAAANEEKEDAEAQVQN

T2: AtALBA2 K30E (Arabidopsis thaliana, UniProt O22969 1-130, K30E)
T2 sequence: T1 sequence with K30E

B1: dsDNA (EMSA-DNA) (dsDNA)
DNA 1: TCGAATCTCATCATCGCCGC
DNA 2: GCGGCGATGATGAGATTCGA
B2: artificial R-loop (mixed)
DNA 1: GCTCGCAAACTACTTAGATGTCATCCGCGAGG
DNA 2: CCTCGCAAGCGGCGATGATGAGATTCGAAAGCGAGC
RNA: UCGAAUCUCAUCAUCGCCGC

Columns and labels:
Experiment in all cases: EMSA
AtALBA2 [1] = target: T1, AtALBA2
AtALBA2 K30E = target: T2, AtALBA2 K30E
AtALBA2 [2] = target: T1, AtALBA2; remark: listed apart in the source

Row | Binder | binding result (AtALBA2 [1]) | binding result (AtALBA2 K30E) | binding result (AtALBA2 [2])
1 | B1 | binds | no binding | –
2 | B2 | – | – | binds
